The results in this text go back to article PMC4800717, “Hxt13, Hxt15, Hxt16 and Hxt17 from Saccharomyces cerevisiae represent a novel type of polyol transporters” (Scientific Reports, 2016).

Substitutions are numbered along the chain they refer to. Names may count otherwise.

Substrate in series [1]: OC[C@@H](O)[C@@H](O)[C@H](O)[C@H](O)CO
Put plainly: NAD+ reduction, crude extract of overexpressing yeast. It is filed as biochemical, Saccharomyces cerevisiae. The conditions noted are these: 1.66 mM NAD+, 60 mM HEPES-NaOH pH 7.4. The source says: (§1) NAD+ reduction, crude extract of overexpressing yeast on Sor1

Substrate in series [2]: OC[C@@H](O)[C@@H](O)[C@H](O)[C@@H](O)CO
Described as above. It is filed as biochemical, Saccharomyces cerevisiae. The settings on record: 1.66 mM NAD+, 60 mM HEPES-NaOH pH 7.4.
From the text: as §1

Substrate in series [3]: OC[C@@H](O)[C@@H](O)[C@H](O)[C@H](O)CO
The series is described as above. The conditions noted are these: 1.66 mM NAD+, 60 mM HEPES-NaOH pH 7.4. It is filed as biochemical, Saccharomyces cerevisiae. The source says: (§2) NAD+ reduction, crude extract of overexpressing yeast on Sor2
This is another data set of the same source.

Substrate in series [4]: OC[C@@H](O)[C@@H](O)[C@H](O)[C@@H](O)CO
The series is described as above. It is filed as biochemical, Saccharomyces cerevisiae. The conditions noted are these: 1.66 mM NAD+, 60 mM HEPES-NaOH pH 7.4.
From the text: as §2
The source holds these as a separate data set.

Substrate in series [5]: OC[C@@H](O)[C@@H](O)[C@H](O)[C@H](O)CO
Put plainly: cells, lysate or membranes. Type of series: cell-based, Saccharomyces cerevisiae. The settings on record: labelled compound, EBY.VW4000 co-expressing YNR073C, 30 °C.

Substrate in series [6]: OC[C@@H](O)[C@@H](O)[C@H](O)[C@@H](O)CO
Kind of series: cells, lysate or membranes. The conditions noted are these: labelled compound, EBY.VW4000 co-expressing SOR1, 30 °C, facilitated transport. Type of series: cell-based, Saccharomyces cerevisiae.

Substrate in series [7]: OC[C@@H](O)[C@@H](O)[C@H](O)[C@H](O)CO
Put plainly: NAD+ reduction, crude extract of overexpressing yeast. Type of series: biochemical, Saccharomyces cerevisiae. The conditions noted are these: 1.66 mM NAD+, 60 mM HEPES-NaOH pH 7.4. The source says: NAD+ reduction, crude extract of overexpressing yeast on YNR073C
The source holds these as a separate data set.

Substrate in series [8]: OC[C@@H](O)[C@@H](O)[C@H](O)[C@H](O)CO
The series is described as above. Type of series: biochemical, Saccharomyces cerevisiae. The settings on record: 1.66 mM NAD+, 60 mM HEPES-NaOH pH 7.4. From the text: NAD+ reduction, crude extract of overexpressing yeast on Dsf1
The source holds these as a separate data set.

B1: Sor1 (Saccharomyces cerevisiae S288C) (protein)
chain: MSQNSNPAVVLEKVGDIAIEQRPIPTIKDPHYVKLAIKATGICGSDIHYYRSGGIGKYILKAPMVLGHESSGQVVEVGDAVTRVKVGDRVAIEPGVPSRYSDETKEGRYNLCPHMAFAATPPIDGTLVKYYLSPEDFLVKLPEGVSYEEGACVEPLSVGVHSNKLAGVRFGTKVVVFGAGPVGLLTGAVARAFGATDVIFVDVFDNKLQRAKDFGATNTFNSSQFSTDKAQDLADGVQKLLGGNHADVVFECSGADVCIDAAVKTTKVGGTMVQVGMGKNYTNFPIAEVSGKEMKLIGCFRYSFGDYRDAVNLVATGKVNVKPLITHKFKFEDAAKAYDYNIAHGGEVVKTIIFGPE
notes: full-length ORF, p425H7 multicopy plasmid, overexpressed in yeast CEN.PK2-1C; crude extract
Consider B1, for which, in series [1], the Michaelis constant (Km) is recorded as 89.0 ± 37.5 mM and the Vmax is recorded as 0.10 ± 0.02 umol substrate converted per minute per. In addition, in series [2], the Km is recorded as 11.8 ± 1.4 mM and the Vmax was 0.40 ± 0.01 umol substrate converted per minute per.

B2: Sor2 (Saccharomyces cerevisiae S288C) (protein)
chain: B1 chain with R108S
notes: as for B1
On to B2, for which, in series [3], the Km turned out to be 98.4 ± 25.7 mM and the Vmax is reported as 0.05 ± 0.01 umol substrate converted per minute per. In addition, in series [4], the Km is 15.1 ± 2.8 mM and the Vmax is reported as 0.5 ± 0.02 umol substrate converted per minute per.

B3: Hxt15 (Saccharomyces cerevisiae S288C) (protein)
chain: MASEQSSPEINADNLNSSAADVHVQPPGEKEWSDGFYDKEVINGNTPDAPKRGFLGYLIIYLLCYPVSFGGFLPGWDSGITAGFINMDNFKMNFGSYKHSTGEYYLSNVRMGLLVAMFSVGCSIGGVAFARLADTLGRRLAIVIVVLVYMVGAIIQISSNHKWYQYFVGKIIYGLGAGGCSVLCPMLLSEIAPTDLRGGLVSLYQLNMTFGIFLGYCSVYGTRKYSNTAQWRIPVGLCFLWALIIIVGMLLVPESPRYLIECERHEEACVSIAKINKVSPEDPWVLKQADEINAGVLAQRELGEASWKELFSVKTKVLQRLITGILVQTFLQLTGENYFFFYGTTIFKSVGLTDGFETSIVLGTVNFFSTIIAVMVVDKIGRRKCLLFGAASMMACMVIFASIGVKCLYPHGQDGPSSKGAGNAMIVFTCFYIFCFATTWAPVAYIVVAESFPSKVKSKAMSISTAFNWLWQFLIGFFTPFITGSIHFYYGYVFVGCLVAMFLYVFFFLPETIGLSLEEIQLLYEEGIKPWKSASWVPPSRRGASSRETEAKKKSWKEVLKFPKSFN
notes: full-length ORF, p426H7 plasmid, expressed in hxt0 yeast EBY.VW4000 or AFY10 with a polyol dehydrogenase
Take B3: the Michaelis-Menten constant (Km) in series [5] (facilitated transport) is reported as 11.4 ± 2.7 mM; in series [6] it was 38.9 ± 8.6 mM.

B4: Hxt13 (Saccharomyces cerevisiae S288C) (protein)
chain: MSSAQSSIDSDGDVRDADIHVAPPVEKEWSDGFDDNEVINGDNVEPPKRGLIGYLVIYLLCYPISFGGFLPGWDSGITAGFINMDNFKMNFGSYKHSTGEYYLSNVRMGLLVAMFSIGCAIGGLIFARLADTLGRRLAIVIVVLVYMVGAIIQISSNHKWYQYFVGKIIYGLGAGGCSVLCPMLLSEIAPTDLRGGLVSLYQLNMTFGIFLGYCSVYGTRKYDNTAQWRVPLGLCFLWALIIIIGMLLVPESPRYLIECERHEEARASIAKINKVSPEDPWVLKQADEINAGVLAQRELGEASWKELFSVKTKVLQRLITGILVQTFLQLTGENYFFFYGTTIFKSVGLTDGFETSIVLGTVNFFSTIIAVMVVDKIGRRKCLLFGAAGMMACMVIFASIGVKCLYPHGQDGPSSKGAGNAMIVFTCFYIFCFATTWAPVAYIVVAESFPSKVKSRAMSISTACNWLWQFLIGFFTPFITGSIHFYYGYVFVGCLVAMFLYVFFFLPETIGLSLEEIQLLYEEGIKPWKSASWVPPSRRGISSEESKTEKKDWKKFLKFSKNSD
notes: full-length ORF, p426H7 plasmid, expressed in hxt0 yeast EBY.VW4000 with YNR073C or SOR1
Consider B4, for which the Km in series [5] (facilitated transport) turned out to be 16.7 ± 2.9 mM; in series [6], 20.4 ± 2.4 mM.

B5: Hxt17 (Saccharomyces cerevisiae S288C) (protein)
chain: MQSSTESDRDIQDGPDADIHVAPPVEKEWSDGFDDNEVINGDNVEPPKRGLIGYLVIYLLCYPISFGGFLPGWDSGITAGFINMDNFKMNFGSYKHSTGEYYLSNVRMGLLVAMFSIGCAIGGLIFARLADTLGRRLAIVIVVLVYMVGAIIQISSNHKWYQYFVGKIIYGLGAGGCSVLCPMLLSEIAPTDLRGGLVSLYQLNMTFGIFLGYCSVYGTRKYDNTAQWRVPLGLCFLWTLIIIIGMLLVPESPRYLIECERHEEARASIAKINKVSPEDPWVLKQADEINAGVLAQRELGEASWKELFSVKTKVLQRLITGILVQTFLQLTGENYFFFYGTTIFKSVGLTDGFETSIVLGTVNFFSTIIAVMVVDKIGRRKCLLFGAAGMMACMVIFASIGVKCLYPHGQDGPSSKGAGNAMIVFTCFYIFCFATTWAPVAYIVVAESFPSKVKSRAMSISTACNWLWQFLIGFFTPFITGSIHFYYGYVFVGCLVAMFLYVFFFLPETIGLSLEEIQLLYEEGIKPWKSASWVPPSRRGIPSEESKTEKKDWKKFLKFSKGSD
notes: as for B4
Turning to B5, the Km in series [5] is 18.6 ± 4.3 mM.

B6: YNR073C (Saccharomyces cerevisiae S288C) (protein)
chain: MTKSDETTATSLNAKTLKSFESTLPIPTYPREGVKQGIVHLGVGAFHRSHLAVFMHRLMQEHHLKDWSICGVGLMKADALMRDAMKAQDCLYTLVERGIKDTNAYIVGSITAYMYAPDDPRAVIEKMANPDTHIVSLTVTENGYYHSEATNSLMTDAPEIINDLNHPEKPDTLYGYLYEALLLRYKRGLTPFTIMSCDNMPQNGVTVKTMLVAFAKLKKDEKFAAWIEDKVTSPNSMVDRVTPRCTDKERKYVADTWGIKDQCPVVAEPFIQWVLEDNFSDGRPPWELVGVQVVKDVDSYELMKLRLLNGGHSAMGYLGYLAGYTYIHEVVNDPTINKYIRVLMREEVIPLLPKVPGVDFEEYTASVLERFSNPAIQDTVARICLMGSGKMPKYVLPSIYEQLRKPDGKYKLLAVCVAGWFRYLTGVDMNGKPFEIEDPMAPTLKAAAVKGGKDPHELLNIEVLFSPEIRDNKEFVAQLTHSLETVYDKGPIAAIKEILDQV
notes: as for B1
Take B6: in series [7], the Km is on record as 3.6 ± 0.5 mM and the Vmax is 0.40 ± 0.02 umol substrate converted per minute per.

B7: Dsf1 (Saccharomyces cerevisiae S288C) (protein)
chain: B6 chain
notes: as for B1
Regarding B7, in series [8], the Km is listed as 2.9 ± 0.3 mM and the Vmax is on record as 0.90 ± 0.02 umol substrate converted per minute per.
